Molecular target: the molecule itself
Experiment: SEC

B1: PdeA(R69A) (enzyme, Caulobacter crescentus, UniProt Q9A310 1-555, looked up)
chain: MSFRTGERRIWDATATLEALGAADVALWIWEPETDRLRLNGAARALGLGPLAPECSSAAFRALALPQDAAQAEEVLKPREPGSEVVARFRVRGGETCLWRGVWLEEGVRAAGVVAPETKFSASELCDLTGLLDRRSFLARARERLAQEGTHQLVVADLDRLRRLNEALGHERADLVLAALGSRLAAAFPAQSILGRIGEDEFAVLCQPLGYEPSDVLRSALEQPLRVAGFDIHPTLSIGAVSAEGGLDAPDAAELLRRAELAVEAAAAAGRGGAAAYGRAMETDGLSRLALEADLRGAIGRGEITPYFQPIVRLSTGALSGFEALARWIHPRRGMLPPDEFLPLIEEMGLMSELGAHMMHAAAQQLSTWRAAHPAMGNLTVSVNLSTGEIDRPGLVADVAETLRVNRLPRGALKLEVTESDIMRDPERAAVILKTLRDAGAGLALDDFGTGFSSLSYLTRLPFDTLKIDRYFVRTMGNNAGSAKIVRSVVKLGQDLDLEVVAEGVENAEMAHALQSLGCDYGQGFGYAPALSPQEAEVYLNEAYVDGAAPVKARG
  stoichiometry N: 2

From paper PMC3410435 (Structure (London, England : 1993), 2012)
